Earlier results in article PMC6482830.

Target: eIF4E (Homo sapiens) (UniProt P06730)
Experiment: ITC

UniProt P06730, sequence (P06730 2-217): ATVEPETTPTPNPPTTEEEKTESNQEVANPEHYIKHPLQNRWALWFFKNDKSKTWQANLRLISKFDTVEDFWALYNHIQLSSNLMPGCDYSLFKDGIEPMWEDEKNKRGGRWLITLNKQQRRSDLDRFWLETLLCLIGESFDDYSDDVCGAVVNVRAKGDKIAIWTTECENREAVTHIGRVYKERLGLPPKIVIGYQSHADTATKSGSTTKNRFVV

Question: Which Kd does the source give for 4E-BP1 peptide (from UniProt Q13541) here?
Answer: 50 nM
